From patent US20220251174A1 (published 2022)

Target: SARS-CoV-2 Spike S2-hFc (SARS-CoV-2, UniProt P0DTC2 686-1213)
Assay: Octet BLI; Fab analyte over S2-hFc on AHC sensors; steady-state analysis
Experimental: All label-free interaction analysis was performed on an Octet HTX biolayer interferometry-based detection system (ForteBio/Sartorius, Göttingen, Germany) equipped with various sensor types; AR (amine-reactive), SAX (streptavidin-coated), or AHC (anti-human-Fc capture) sensors. Experiments were conducted at 25° C. in a run buffer of PBS containing 0.05% Tween™-20 and 0.5 mg/mL BSA.
Binding affinity estimates. Different assay formats were used to estimate the binding affinities of Ab/target bimolecular interactions. In one assay format, Fab was titrated as monovalent analyte (typically as a 3-fold series with a top concentration of 3 μM, and at least one concentration in duplicate) over AHC sensors coated with human-Fc-fused targets RBD-hFc, S1-hFc or S2-hFc as ligands (Sino Biological). […] Global affinity estimates were determined using the Kinetics module of Fortebio's Data Analysis HT software version 12.0.1.55. Data were processed by subtracting the responses of a buffer analyte sample and fitting these referenced data globally to a simple 1:1 Langmuir binding model to deduce the KD value from the ratio of the kinetic rate constants (KD=kd/kₐ), where kd and kₐ are the dissociation and association rate constants, respectively. […] All samples were measured on duplicate sensors.

B1: 2-A6 Fab (Fab, V domains shown)
VH: QVTLRESGPALVKPTQTLTLTCTFSGFSLNTRGMSVSWIRQPPGKALEWLALIDWEDDKFYRTSLMTRLTISKDIFKNQVVLTMTNVDPVDTGTYYCARTYSVGVKYFGMDVWGQGTTVTVSS
VL: SSELTQDPAVSVALGQTVRITCQGDSLRNYYASWYRQEPGQAPILLIYGGNYRPSGIPDRFSGSSSGNTASLTITGAQAEDEADYYCNSRDSSGNHVVFGGGTKLTVL
Kd: 913 nM
